Assay results published in article PMC3374753.
Like-named read-outs stand apart in the source and are kept apart here.

Legend:
[1] = molecular target: retromer cargo-selective complex (CSC), trimer of VPS35, VPS29 and VPS26 (UniProt Q96QK1); assay: ITC
[2] = molecular target: retromer cargo-selective complex (CSC), trimer of VPS35, VPS29 and VPS26 (UniProt Q96QK1); assay: ITC; remark: listed apart in the source

| Kd [1] [µM] | stoichiometry N [1] | Kd [2] [µM] | Kd of the second site (two-site model, one site fixed to 16.6 μM) [1] [µM] | Substance |
| --- | --- | --- | --- | --- |
| 2.4 | 0.42 | – | – | FC fragment of FAM21 (938-1341 without 1029-1047) as used in ITC (domain or fragment) |
| 11.5 | 0.32 | – | – | FN fragment of FAM21 (356-600) as used in ITC (domain or fragment) |
| 6.8 | 0.39 | – | – | R19-20 for ITC (FAM21 1250-1317, Trp, His6) (domain or fragment) |
| 2.5 to 16.6 | 0.49 | 3.2 | 3 | R20-21 for ITC (FAM21 1278-1341, Trp, His6) (domain or fragment) |
| 16.6 | 0.82 | – | – | R21 for ITC (FAM21 1309-1341, Trp, His6) (domain or fragment) |
